Patent publication US7354588B1, “Functional derivatives of ICAM-1 with altered ability to bind LFA-1 or HRV” (Dana Farber Cancer Institute, priority 1987, dated 2008)
Changes are numbered by the printed parent chain. Entries after “also recorded” stand apart in the source; their conditions may differ.

B1: V4/G: ICAM-1 mutant, replacement of V4 with G (protein, UniProt P05362 28-532, looked up, variant V4G)
Intercellular adhesion …: QTSGSPSKVILPRGGSVLVTCSTSCDQPKLLGIETPLPKKELLLPGNNRKVYELSNVQEDSQPMCYSNCPDGQSTAKTFLTVYWTPERVELAPLPSWQPVGKNLTLRCQVEGGAPRANLTVVLLRGEKELKREPAVGEPAEVTTTVLVRRDHHGANFSCRTELDLRPQGLELFENTSAPYQLQTFVLPATPPQLVSPRVLEVDTQGTVVCSLDGLFPVSEAQVHLALGDQRLNPTVTYGNDSFSAKASVSVTAEDEGTQRLTCAVILGNQSQETLQTVTIYSFPAPNVILTKPEVSEGTEVTVKCEAHPRAKVTLNGVPAQPLGPRAQLLLKATPEDNGRSFSCSATLEVAGQLIHKNQTRELRVLYGPRLDERDCPGNWTWPENSQQTPMCQAWGNPLPELKCLKDGTFPLPIGESVTVTRDLEGTYLCRARSTQGEVTRKVTVNVLSPRYEIVIITVVAAAVIMGTAGLSTYLYNRQRKIKKYRLQQAQKGTPMKPNTQATPP
B2: R13/E: ICAM-1 mutant, replacement of R13 with E (protein, UniProt P05362 28-532, looked up, variant R13E)
Intercellular adhesion …: B1 Intercellular adhesion … with G4V, R13E
B3: E34/A: ICAM-1 substitution mutant, E34 replaced with A (protein, UniProt P05362 28-532, looked up, variant E34A)
Intercellular adhesion …: B1 Intercellular adhesion … with G4V, E34A
B4: Q58/H: ICAM-1 substitution mutant, Q58 replaced with H (protein, UniProt P05362 28-532, looked up, variant Q58H)
Intercellular adhesion …: B1 Intercellular adhesion … with G4V, Q58H
B5: N103/K: ICAM-1 mutant, replacement of N103 with K (protein, UniProt P05362 28-532, looked up, variant N103K)
Intercellular adhesion …: B1 Intercellular adhesion … with G4V, N103K
B6: N175/A: ICAM-1 mutant, glycosylation site N175 replaced with A (protein, UniProt P05362 28-532, looked up, variant N175A)
Intercellular adhesion …: B1 Intercellular adhesion … with G4V, N175A
B7: Q27/L: ICAM-1 substitution mutant, Q27 to L (protein, UniProt P05362 28-532, looked up, variant Q27L)
Intercellular adhesion …: B1 Intercellular adhesion … with G4V, Q27L
B8: E90/K: ICAM-1 substitution mutant, E90 to K (protein, UniProt P05362 28-532, looked up, variant E90K)
Intercellular adhesion …: B1 Intercellular adhesion … with G4V, E90K
B9: Q73/H: ICAM-1 substitution mutant, Q73 to H (protein, UniProt P05362 28-532, looked up, variant Q73H)
Intercellular adhesion …: B1 Intercellular adhesion … with G4V, Q73H
B10: Q73/T: ICAM-1 substitution mutant, Q73 to T (protein, UniProt P05362 28-532, looked up, variant Q73T)
Intercellular adhesion …: B1 Intercellular adhesion … with G4V, Q73T
B11: N118/Q: ICAM-1 domain 2 substitution mutant affecting an N-linked glycosylation site (protein, UniProt P05362 28-532, looked up, variant N118Q)
Intercellular adhesion …: B1 Intercellular adhesion … with G4V, N118Q
B12: N156/E: ICAM-1 domain 2 substitution mutant affecting an N-linked glycosylation site (protein, UniProt P05362 28-532, looked up, variant N156E)
Intercellular adhesion …: B1 Intercellular adhesion … with G4V, N156E
B13: S177/G: ICAM-1 domain 2 substitution mutant affecting an N-linked glycosylation site (protein, UniProt P05362 28-532, looked up, variant S177G)
Intercellular adhesion …: B1 Intercellular adhesion … with G4V, S177G

Each molecule was assayed on R6.5 mAb (assay: Indirect immunofluorescence flow cytofluorometry: mAb R6.5 binding to COS cells expressing ICAM-1 mutants (SLFI, % CL203)). Settings: SLFI normalized to CL203 SLFI of the mutant.
Assay type: cell-based
Description: (§1) For HRV binding studies, COS cells were reseeded in a 24 well plate. One day later, the confluent monolayer was washed twice with 1 ml of RPMI 1640/10 mM MgCl2/25 mM Hepes pH 7.3 (rhinovirus-14 buffer). Transfected COS cells were labeled with 51Cr for binding to LFA-1 coated plastic as previously described (Staunton, D. E., et al., Nature 339:61-64 (1989). Immunoprecipitation and indirect immunofluorescence was performed using ICAM-1 MAb RR1/1 (Rothlein, R., et al., J. Immunol. 137:1270-1274 (1986)), R6.5 (Rothlein, R., et al., J. Immunol. 141:1665-1669 (1988)), LB-1 (Clark, E. A., et al., Hum. Immunol. 16:100-113 (1986)) and CL203 (Maio, M., J. Immunol. 143:181-188 (1989), all of which references are incorporated herein by reference).
(§2) Binding of RR1, R6.5, and LB-2 mAb was normalized to binding of CL203 mAb using Specific Linear Fluorescence Intensity (SLFI): % CL203=(mAbSLFI)×100)/CL203mABSLFI
(§3) In Table 25, the notation for the mutations uses the one-letter code for the wild-type sequence followed by a slash and the one-letter code for the corresponding mutant sequence. The position of the first amino acid within the sequence is indicated. Wild type residues precede the slash followed by the residues they were substituted for in the mutant. COS cells expressing ICAM-1 mutants were tested for adherence to LFA-1 coated plastic and for binding 35S met-labeled HRV14. LFA-1 and HRV14 binding is normalized for percent of cells expressing mutant ICAM-1 and for binding of wild type expressing cells. Binding is presented as mean and standard error (SE) for multiple experiments (n). Effects of two-fold or greater were reproducible in LFA-1, HRV and mAb binding assays and thus considered significant (bold and underlined). The specific linear fluorescence intensity (SLFI) of CL203 for each mutant is normalized to that of wild type CL203 SLFI (% WT) as discussed above. The SLFI of RR1/1, R6.5 and LB-2 SLFI is normalized to the CL203 SLFI of the mutant (% CL203) as described above.

| Molecule | SLFI (% CL203) R6.5 [% CL203] |
| --- | --- |
| B1 | 73 |
| B2 | 48 |
| B3 | 150 |
| B4 | 107 |
| B5 | 60 |
| B6 | 175 |
| B7 | 75 |
| B8 | 123 |
| B9 | 80 |
| B10 | 86 |
| B11 | 85 |
| B12 | 95 |
| B13 | 118 |

The molecules below were run on LB-2 mAb (assay: Indirect immunofluorescence flow cytofluorometry: mAb LB-2 binding to COS cells expressing ICAM-1 mutants (SLFI, % CL203)). Settings: SLFI normalized to CL203 SLFI of the mutant.
Assay type: cell-based
Description: as §1, §2, §3

| Molecule | SLFI (% CL203) LB-2 [% CL203] |
| --- | --- |
| B1 | 58 |
| B2 | 4 |
| B3 | 142 |
| B4 | 93 |
| B5 | 22 |
| B6 | 150 |
| B7 | 125 |
| B8 | 108 |
| B9 | 80 |
| B10 | 114 |
| B11 | 93 |
| B12 | 95 |
| B13 | 90 |

What follows are molecules tested on CL203 mAb (assay: Indirect immunofluorescence flow cytofluorometry: mAb CL203 binding to COS cells expressing ICAM-1 mutants (SLFI, % WT)). Settings: COS cells expressing the mutant, relative to wild type.
Assay type: cell-based
Description: as §1, §2, §3

| Molecule | binding of MAb CL203 (in words) |
| --- | --- |
| B7 | specifically reduced level of expression |
| B8 | specifically reduced level of expression |

Same assay, conditions: SLFI of CL203 for mutant normalized to wild type CL203 SLFI; level of expression

| Molecule | Cl203 % WT (SLFI) [% WT] |
| --- | --- |
| B1 | 111 |
| B2 | 202 |
| B3 | 132 |
| B4 | 135 |
| B5 | 91 |
| B6 | 80 |
| B7 | 33 |
| B8 | 29 |
| B9 | 139 |
| B10 | 218 |
| B11 | 139 |
| B12 | 182 |
| B13 | 87 |

The molecules below were run on RR1/1 mAb (assay: Indirect immunofluorescence flow cytofluorometry: mAb RR1/1 binding to COS cells expressing ICAM-1 mutants (SLFI, % CL203)). Settings: SLFI normalized to CL203 SLFI of the mutant.
Assay type: cell-based
Description: as §1, §2, §3

| Molecule | SLFI (% CL203) RR/1 [% CL203] |
| --- | --- |
| B1 | 47 |
| B2 | 4 |
| B3 | 142 |
| B4 | 93 |
| B5 | 17 |
| B6 | 162 |
| B7 | 75 |
| B8 | 100 |
| B9 | 21 |
| B10 | 71 |
| B11 | 93 |
| B12 | 84 |
| B13 | 136 |

Each molecule was assayed against T1, LFA-1 (Homo sapiens, UniProt P05107+P20701) (assay: Adherence of COS cells expressing ICAM-1 or ICAM-1 mutants to plastic-bound purified LFA-1). Settings: COS cells expressing ICAM-1 mutant adhering to LFA-1 coated plastic; normalized for percent of cells expressing mutant and for wild type binding; mean.
T1 construct: endogenous in cells
T1 sequence (P20701 26-1170): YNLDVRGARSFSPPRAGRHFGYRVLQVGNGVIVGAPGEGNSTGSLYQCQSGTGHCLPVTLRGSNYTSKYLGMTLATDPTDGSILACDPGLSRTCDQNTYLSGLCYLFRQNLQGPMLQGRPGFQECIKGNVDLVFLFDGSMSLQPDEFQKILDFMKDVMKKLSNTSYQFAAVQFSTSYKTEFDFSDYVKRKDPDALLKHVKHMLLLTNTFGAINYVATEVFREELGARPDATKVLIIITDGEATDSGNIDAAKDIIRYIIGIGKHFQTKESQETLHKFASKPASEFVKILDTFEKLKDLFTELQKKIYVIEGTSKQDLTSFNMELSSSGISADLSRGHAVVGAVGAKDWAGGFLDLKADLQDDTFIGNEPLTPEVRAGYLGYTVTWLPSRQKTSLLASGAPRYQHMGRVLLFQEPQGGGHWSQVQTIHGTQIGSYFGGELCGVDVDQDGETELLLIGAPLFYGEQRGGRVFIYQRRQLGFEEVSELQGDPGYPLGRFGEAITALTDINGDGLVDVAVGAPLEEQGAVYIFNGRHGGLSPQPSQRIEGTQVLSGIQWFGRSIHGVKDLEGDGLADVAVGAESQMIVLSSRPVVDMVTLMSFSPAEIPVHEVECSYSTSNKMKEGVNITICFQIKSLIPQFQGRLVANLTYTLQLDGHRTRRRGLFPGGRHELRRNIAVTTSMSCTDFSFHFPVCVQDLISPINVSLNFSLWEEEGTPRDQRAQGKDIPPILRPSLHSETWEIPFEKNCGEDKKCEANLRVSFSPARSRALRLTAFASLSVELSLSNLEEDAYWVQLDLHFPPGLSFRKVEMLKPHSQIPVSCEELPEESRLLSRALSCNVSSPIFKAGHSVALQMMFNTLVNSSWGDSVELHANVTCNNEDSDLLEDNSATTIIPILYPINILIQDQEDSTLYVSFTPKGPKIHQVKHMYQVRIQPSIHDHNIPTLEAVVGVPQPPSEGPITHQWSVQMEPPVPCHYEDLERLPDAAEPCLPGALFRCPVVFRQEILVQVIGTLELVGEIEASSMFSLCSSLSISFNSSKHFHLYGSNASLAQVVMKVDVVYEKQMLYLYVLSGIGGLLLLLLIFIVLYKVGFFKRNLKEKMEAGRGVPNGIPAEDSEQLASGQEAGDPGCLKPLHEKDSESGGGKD
T1 sequence (P05107 23-769): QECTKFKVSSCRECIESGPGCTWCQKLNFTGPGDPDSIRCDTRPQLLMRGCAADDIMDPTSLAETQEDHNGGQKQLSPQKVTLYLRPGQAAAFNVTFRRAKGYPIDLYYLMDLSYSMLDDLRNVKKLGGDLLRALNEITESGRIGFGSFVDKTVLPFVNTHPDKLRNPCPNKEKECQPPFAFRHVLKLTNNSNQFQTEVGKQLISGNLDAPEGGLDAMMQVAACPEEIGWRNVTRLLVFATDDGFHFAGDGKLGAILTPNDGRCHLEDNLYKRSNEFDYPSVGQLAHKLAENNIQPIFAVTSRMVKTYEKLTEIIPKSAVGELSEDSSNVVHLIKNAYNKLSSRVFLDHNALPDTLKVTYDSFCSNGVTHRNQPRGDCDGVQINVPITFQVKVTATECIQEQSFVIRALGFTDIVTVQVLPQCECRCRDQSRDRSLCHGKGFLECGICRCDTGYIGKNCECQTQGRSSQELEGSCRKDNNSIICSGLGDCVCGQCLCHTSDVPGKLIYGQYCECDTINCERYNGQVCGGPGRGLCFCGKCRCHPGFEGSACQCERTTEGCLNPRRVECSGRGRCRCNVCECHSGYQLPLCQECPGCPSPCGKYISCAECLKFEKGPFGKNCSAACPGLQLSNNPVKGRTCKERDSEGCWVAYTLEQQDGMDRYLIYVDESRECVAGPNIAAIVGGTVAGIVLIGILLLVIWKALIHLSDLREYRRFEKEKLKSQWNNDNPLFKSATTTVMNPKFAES
Assay type: cell-based

| Molecule | LFA-1 Binding % [%] |
| --- | --- |
| B1 | 64 |
| B2 | 1 |
| B3 | 0 |
| B4 | 109 |
| B5 | 12 |
| B6 | 67 |
| B7 | 37 |
| B8 | 34 |
| B9 | 12 |
| B10 | 40 |
| B11 | 54 |
| B12 | 60 |
| B13 | 59 |

Same assay, conditions: COS cells expressing the mutant, relative to wild type

| Molecule | LFA-1 binding of ICAM-1 mutant (in words) | decrease in LFA-1 binding |
| --- | --- | --- |
| B1 | less able to bind to LFA-1 | – |
| B2 | substantially less capacity to bind LFA-1 | – |
| B3 | completely eliminates LFA-1 binding; also recorded: totally eliminates LFA-1 binding | – |
| B4 | substantially normal capacity to bind LFA-1 | – |
| B5 | substantially incapable of binding LFA-1 | – |
| B6 | did not appear to substantially effect | approximately two-fold |
| B9 | – | 10 fold |
| B10 | – | two-fold |
| B11 | – | approximately two-fold |
| B12 | – | approximately two-fold |
| B13 | – | approximately two-fold |

Same assay, conditions: COS cells expressing the mutant, relative to wild type; listed as E34

| Molecule | LFA-1 binding of ICAM-1 mutant (in words) |
| --- | --- |
| B3 | substantially less capacity to bind LFA-1 |

What follows are molecules tested on HRV14 (assay: Binding of [^35S]-Met labeled HRV14 to COS cells expressing ICAM-1 mutants). Settings: 35S met-labeled HRV14 binding to COS cells expressing ICAM-1 mutant; normalized for percent of cells expressing mutant and for wild type binding; mean.
Assay type: cell-based, human rhinovirus 14

| Molecule | HRV Binding % [%] |
| --- | --- |
| B1 | 30 |
| B2 | 10 |
| B3 | 66 |
| B4 | 1 |
| B5 | 13 |
| B6 | 129 |
| B7 | 57 |
| B8 | 50 |
| B9 | 117 |
| B10 | 133 |
| B11 | 110 |
| B12 | 107 |
| B13 | 66 |

Same assay, conditions: COS cells expressing the mutant, relative to wild type

| Molecule | HRV14 binding of ICAM-1 mutant (in words) | decrease in HRV14 binding [fold] |
| --- | --- | --- |
| B3 | weak or a non-detectable affect on HRV binding | 2 |
| B4 | virtually eliminated HRV14 binding | – |
| B9 | weak or a non-detectable affect on HRV binding | – |
